Measurements from patent US12329823B2 (The Scripps Research Institute, priority 2021, dated 2025).
Where two headings read alike, the source gives them in different places.

How the values were obtained:
[1] = biological target: human GLP-1R (Homo sapiens, UniProt P43220); assay: In vitro receptor activation reporter assay (CRE-Luc, HEK293-GLP-1R-CRE cells; receptor-mediated cAMP synthesis); format: cell-based; parameters: expressed in transfected cells; host or cells: HEK293 (CRE-HEK293, HEK293-GLP-1R-CRE)
Experimental: (§1) HEK293 cells were infected with lentivirus encoding firefly luciferase gene under the control of cAMP responsive element (CRE) promoter (Qiagen, The Netherlands) and then were selected using 1 μg mL^−1 puromycin (Life Technologies, Carlsbad) for 1 week. The surviving cells (referred to as CRE-HEK293) were expanded and then transfected with a G418 selective mammalian expression plasmid encoding human GLP-1R or GIPR. In brief, GLP-1R or GIPR plasmid was transfected into CRE-HEK293 cells using Lipofectamine 2000 and selected with 400 μg mL^−1 Geneticin (Life Technologies, Carlsbad, CA). Single colony stable cell line overexpressing CRE-luciferase and GLP-1R or GIPR (HEK293-GLP-1R-CRE or HEK293-GIPR-CRE) was then established for in vitro activity assay.
(§2) The EC50 of each peptide was determined using GraphPad Prism 6 software (GraphPad, San Diego, CA).
HEK293 cells were infected with lentivirus encoding firefly luciferase gene under the control of cAMP responsive element (CRE) promoter (Qiagen, The Netherlands) and then were selected using 1 μg/mL puromycin (Life Technologies, Carlsbad) for 1 week. The surviving cells (referred to as CRE-HEK293) were expanded and then transfected with a G418 selective mammalian expression plasmid encoding human GLP-1R. In brief, GLP-1R plasmid was transfected into CRE-HEK293 cells using Lipofectamine 2000 and selected with 400 μg/mL Geneticin (Life Technologies, Carlsbad, CA). Single colony stable cell line overexpressing CRE-luciferase and GLP1R was then established for in vitro activity assay.

[2] = biological target: T1, human GIPR (Homo sapiens, UniProt P48546); assay: In vitro receptor activation reporter assay (CRE-Luc, HEK293-GIPR-CRE cells; receptor-mediated cAMP synthesis); format: cell-based
T1 construct: expressed in transfected cells; host or cells: HEK293 (CRE-HEK293, HEK293-GIPR-CRE)
T1 sequence (P48546 22-466): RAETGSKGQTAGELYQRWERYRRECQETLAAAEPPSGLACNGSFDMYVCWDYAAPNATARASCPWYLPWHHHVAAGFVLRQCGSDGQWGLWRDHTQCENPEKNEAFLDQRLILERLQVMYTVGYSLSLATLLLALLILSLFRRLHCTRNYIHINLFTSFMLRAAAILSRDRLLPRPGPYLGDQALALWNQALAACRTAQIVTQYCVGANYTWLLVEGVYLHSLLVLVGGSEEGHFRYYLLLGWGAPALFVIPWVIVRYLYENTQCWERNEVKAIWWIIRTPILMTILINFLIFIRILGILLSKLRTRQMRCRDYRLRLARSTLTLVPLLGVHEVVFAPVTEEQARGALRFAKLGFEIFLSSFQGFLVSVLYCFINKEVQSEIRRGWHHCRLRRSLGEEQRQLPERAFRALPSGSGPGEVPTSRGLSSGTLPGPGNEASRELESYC
Experimental: as §1, §2

[3] = Pharmacokinetics in CD-1 mouse, I.V. or S.C. 1 mg/kg, plasma concentration by LC-MS;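 note: peptide levels in plasma quantified by LC-MS across multiple sampling times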
Experimental: The peptide plasma concentration at various time points was determined using LC-MS.

[4] = Acute oral glucose tolerance test (OGTT) in wild-type mice, 2 h and 96 h post injection; format: in vivo, mouse; details: 96 h after administration; 10 nmol/kg s.c.
[5] = In vivo oral glucose tolerance test (OGTT) 12 h after a single S.C. dose; parameters: species or system mouse; details: 10 nmol/kg S.C.; 12 h before glucose
Experimental: Mice were fasted overnight prior to the oral glucose tolerance test (OGTT), and then dosed with peptide. After 12 h, 1 g of glucose solution per kg body weight was administered orally, and mouse tail blood glucose levels were measured before (0 min) and after glucose challenge for 90 minutes (with measurements at 15, 30, 60 and 90 minutes) (FIG. 16). The data were compared using the unpaired Student's t test. Where appropriate, data were compared using repeated measures or one-way analysis of variance, followed by the Student-Newman-Keuls post hoc test. Calculations for […] (mg/dL*min) were also analyzed and graphed in FIG. 16. […]. […].

Chain of human GLP-1R (P43220 24-463): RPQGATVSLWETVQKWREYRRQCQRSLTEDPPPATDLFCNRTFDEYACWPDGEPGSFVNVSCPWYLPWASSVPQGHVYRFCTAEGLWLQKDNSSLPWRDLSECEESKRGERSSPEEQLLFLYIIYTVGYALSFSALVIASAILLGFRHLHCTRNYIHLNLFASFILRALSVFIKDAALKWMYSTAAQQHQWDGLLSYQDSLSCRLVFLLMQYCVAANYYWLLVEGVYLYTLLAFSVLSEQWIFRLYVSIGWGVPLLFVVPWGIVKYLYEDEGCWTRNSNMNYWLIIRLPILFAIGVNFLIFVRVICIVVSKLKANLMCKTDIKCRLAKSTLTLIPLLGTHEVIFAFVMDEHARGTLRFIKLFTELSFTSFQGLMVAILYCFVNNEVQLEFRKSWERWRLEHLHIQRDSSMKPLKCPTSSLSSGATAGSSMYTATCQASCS

`CCCC[C@@H]1NC(=O)[C@H](C)NC(=O)[C@H](C)NC(=O)[C@H](CCC(N)=O)NC(=O)[C@H](CCCCN)NC(=O)[C@H](CC(=O)O)NC(=O)[C@@H](NC(=O)[C@H](Cc2ccc(O)cc2)NC(=O)[C@@H](NC(=O)[C@H](CC(=O)O)NC(=O)[C@H](Cc2ccc(O)cc2)NC(=O)[C@H](CC(=O)O)NC(=O)[C@H](CO)NC(=O)[C@H](Cc2c[nH]cn2)NC(=O)[C@H](Cc2ccccc2)NC(=O)[C@@H](NC(=O)CNC(=O)[C@H](CCC(=O)O)NC(=O)C(C)(C)NC(=O)[C@@H](N)Cc2ccc(O)cc2)[C@@H](C)O)[C@@H](C)CC)CCCCNC(=O)CN(C(=O)CCNC(=O)CCOCCOCCNC(=O)CCOCCOCCNC(=O)CC[C@H](NC(=O)CCCCCCCCCCCCCCCCC(=O)O)C(=O)O)CC(=O)NCCCC[C@@H](C(=O)N[C@@H](Cc2ccccc2)C(=O)N[C@H](C(=O)N[C@@H](C)C(=O)N[C@@H](Cc2c[nH]c3ccccc23)C(=O)N[C@@H](CC(C)C)C(=O)N[C@@H](CC(C)C)C(=O)N[C@@H](C)C(=O)NCC(=O)NCC(=O)N2CCC[C@H]2C(=O)N[C@@H](CO)C(=O)N[C@@H](CO)C(=O)NCC(=O)N[C@@H](C)C(=O)N2CCC[C@H]2C(=O)N2CCC[C@H]2C(=O)N2CCC[C@H]2C(=O)N[C@@H](CO)C(N)=O)C(C)C)NC1=O` [ZA-42 - K5, YAibEGT-FHSDY-DIYXD-KQAANle-XFVAW-LLAGG-PSSGA-PPPS-NH2 (where each X is K) (SEQ ID NO: 47)] gave an EC50 ([1]; Table 7, read-out: EC50 GLP1R) of about 13700 nM.

`CC[C@H](C)[C@H](NC(=O)[C@H](CC(C)C)NC(=O)[C@H](Cc1c[nH]c2ccccc12)NC(=O)[C@H](CC(N)=O)NC(=O)[C@@H](NC(=O)[C@H](Cc1ccccc1)NC(=O)[C@@H]1CSCC(=O)NCCN(C(=O)CCC(=O)NCCOCCOCCC(=O)NCCOCCOCCC(=O)NCCCC[C@H](NC(=O)CCCCCCCCCCCCCCCCCCC(=O)O)C(=O)O)CCNC(=O)CSC[C@H](NC(=O)[C@H](Cc2ccc(O)cc2)NC(=O)[C@@H](NC(=O)[C@H](CO)NC(=O)[C@H](Cc2ccc(O)cc2)NC(=O)[C@H](CC(=O)O)NC(=O)[C@H](CO)NC(=O)[C@@H](NC(=O)[C@H](Cc2ccccc2)NC(=O)[C@@H](NC(=O)CNC(=O)[C@H](CCC(=O)O)NC(=O)C(C)(C)NC(=O)[C@@H](N)Cc2ccc(O)cc2)[C@@H](C)O)[C@@H](C)O)[C@@H](C)CC)C(=O)N[C@@H](CC(=O)O)C(=O)N[C@@H](CCCCN)C(=O)N[C@@H](CCC(N)=O)C(=O)N[C@@H](C)C(=O)N[C@@H](C)C(=O)NC(C)(C)C(=O)N1)C(C)C)C(=O)N[C@@H](C)C(=O)NCC(=O)NCC(=O)N1CCC[C@H]1C(=O)N[C@@H](CO)C(=O)N[C@@H](CO)C(=O)NCC(=O)N[C@@H](C)C(=O)N1CCC[C@H]1C(=O)N1CCC[C@H]1C(=O)N1CCC[C@H]1C(=O)N[C@@H](CO)C(N)=O` [mCMV266, YAibEGT-FTSDY-SIYXD-KQAAAib-XFVNW-LIAGG-PSSGA-PPPS-NH2 (where each X is C) (SEQ ID NO: 52)] showed an EC50 ([2]; EC50 GIPR 02/19, unnumbered table, run 02/19) of 0.08 nM, an EC50 ([2]; EC50 GIPR 03/25, unnumbered table, run 03/25) of 0.06 nM and an EC50 ([2]; EC50 GIPR 03/26, unnumbered table, run 03/26) of 0.06 nM. It also gave an EC50 ([2]; EC50 GIPR, Table 8) of 0.07 nM, an EC50 ([2]; unnumbered table, average of runs, read-out: EC50 GIPR average) of 0.07 nM and a bioavailability ([3]; CD-1, mouse, in vivo, sc, 1 mg/kg) of 63%. The Cl ([3]; Table 14, SC 1 mg/kg) was 4.02 mL/h/kg, the Vd ([3]; Table 14, SC 1 mg/kg) was 0.063 L/kg and the AUC(0-inf) ([3]; mouse, in vivo, iv, 1 mg/kg) was 397 µg·h/mL. It also gave a Cmax ([3]; mouse, in vivo, iv, 1 mg/kg) of 30400 ng/mL, an MRT last ([3]; mouse, in vivo, iv, 1 mg/kg) of 18.6 h and a Tmax ([3]; mouse, in vivo, iv, 1 mg/kg) of 0.5 h. It also gave a Vd ([3]; mouse, in vivo, iv, 1 mg/kg) of 0.043 L/kg, a clearance ([3]; mouse, in vivo, iv, 1 mg/kg) of 2.58 mL/h/kg and a half-life ([3]; mouse, in vivo, iv, 1 mg/kg) of 11.5 h. It also gave an AUC(0-t) ([3]; mouse, in vivo, iv, 1 mg/kg, AUC0-24, Table 14, IV 1 mg/kg) of 269 µg·h/mL, an AUC(0-t) ([3]; mouse, in vivo, iv, 1 mg/kg, AUCLAST, Table 14, IV 1 mg/kg) of 390 µg·h/mL and an AUC(0-inf) ([3]; mouse, in vivo, sc, 1 mg/kg) of 252 µg·h/mL. For the same compound, the Cmax ([3]; mouse, in vivo, sc, 1 mg/kg) was 6610 ng/mL, the MRT last ([3]; mouse, in vivo, sc, 1 mg/kg) was 24.3 h and the Tmax ([3]; mouse, in vivo, sc, 1 mg/kg) was 12.7 h. The half-life ([3]; mouse, in vivo, sc, 1 mg/kg) was 10.7 h, the AUC(0-t) ([3]; mouse, in vivo, sc, 1 mg/kg, AUC0-24, Table 14, SC 1 mg/kg) was 135 µg·h/mL and the AUC(0-t) ([3]; mouse, in vivo, sc, 1 mg/kg, AUCLAST, Table 14, SC 1 mg/kg) was 247 µg·h/mL. The EC50 ([1]; EC50 GLP1R 02/19, unnumbered table, run 02/19) was 0.03 nM, the EC50 ([1]; EC50 GLP1R 3/25, unnumbered table, run 3/25) was 0.05 nM and the EC50 ([1]; EC50 GLP1R 03/26, unnumbered table, run 03/26) was 0.06 nM. The EC50 ([1]; EC50 GLP1R, Table 8) was 0.05 nM and the EC50 ([1]; unnumbered table, average of runs, read-out: EC50 GLP1R average) was 0.05 nM.

For `CC[C@H](C)[C@H](NC(=O)[C@H](CO)NC(=O)[C@H](Cc1ccc(O)cc1)NC(=O)[C@H](CC(=O)O)NC(=O)[C@H](CO)NC(=O)[C@@H](NC(=O)[C@H](Cc1ccccc1)NC(=O)[C@@H](NC(=O)CNC(=O)[C@H](CCC(=O)O)NC(=O)C(C)(C)NC(=O)[C@@H](N)Cc1ccc(O)cc1)[C@@H](C)O)[C@@H](C)O)C(=O)N[C@@H](Cc1ccc(O)cc1)C(=O)N[C@H]1CCCCNC(=O)CN(C(=O)CCNC(=O)CCOCCOCCNC(=O)CCOCCOCCNC(=O)CC[C@H](NC(=O)CCCCCCCCCCCCCCCCC(=O)O)C(=O)O)CC(=O)NCCCC[C@@H](C(=O)N[C@@H](Cc2ccccc2)C(=O)N[C@H](C(=O)N[C@@H](CC(N)=O)C(=O)N[C@@H](Cc2c[nH]c3ccccc23)C(=O)N[C@@H](CC(C)C)C(=O)N[C@@H](CC(C)C)C(=O)N[C@@H](C)C(=O)NCC(=O)NCC(=O)N2CCC[C@H]2C(=O)N[C@@H](CO)C(=O)N[C@@H](CO)C(=O)NCC(=O)N[C@@H](C)C(=O)N2CCC[C@H]2C(=O)N2CCC[C@H]2C(=O)N2CCC[C@H]2C(=O)N[C@@H](CO)C(N)=O)C(C)C)NC(=O)C(C)(C)NC(=O)[C@H](C)NC(=O)[C@H](C)NC(=O)[C@H](CCC(N)=O)NC(=O)[C@H](CCCCN)NC(=O)[C@H](CC(=O)O)NC1=O` [mCLZ715, YAibEGT-FTSDY-SIYXD-KQAAAib-XFVNW-LLAGG-PSSGA-PPPS-NH2 (where each X is K) (SEQ ID NO: 40)], the fasted glucose levels [4] was “significantly reduce fasted glucose levels” and the “glucose handling (OGTT) versus vehicle” value [4] was “more significant improvements in handling glucose”.

In the case of Semaglutide [reference compound], the “glucose handling (OGTT) versus vehicle” value [4] is reported as “did not exhibit any improvement over the vehicle” and the “effects on glucose tolerance” value [5] is reported as “indistinguishable effects on glucose tolerance”.
